The record followed here is publication PMC5159559.

The target of the data set is T1, APRIN (PDS5B) (UniProt Q9NTI5 1-1447).
T1 sequence: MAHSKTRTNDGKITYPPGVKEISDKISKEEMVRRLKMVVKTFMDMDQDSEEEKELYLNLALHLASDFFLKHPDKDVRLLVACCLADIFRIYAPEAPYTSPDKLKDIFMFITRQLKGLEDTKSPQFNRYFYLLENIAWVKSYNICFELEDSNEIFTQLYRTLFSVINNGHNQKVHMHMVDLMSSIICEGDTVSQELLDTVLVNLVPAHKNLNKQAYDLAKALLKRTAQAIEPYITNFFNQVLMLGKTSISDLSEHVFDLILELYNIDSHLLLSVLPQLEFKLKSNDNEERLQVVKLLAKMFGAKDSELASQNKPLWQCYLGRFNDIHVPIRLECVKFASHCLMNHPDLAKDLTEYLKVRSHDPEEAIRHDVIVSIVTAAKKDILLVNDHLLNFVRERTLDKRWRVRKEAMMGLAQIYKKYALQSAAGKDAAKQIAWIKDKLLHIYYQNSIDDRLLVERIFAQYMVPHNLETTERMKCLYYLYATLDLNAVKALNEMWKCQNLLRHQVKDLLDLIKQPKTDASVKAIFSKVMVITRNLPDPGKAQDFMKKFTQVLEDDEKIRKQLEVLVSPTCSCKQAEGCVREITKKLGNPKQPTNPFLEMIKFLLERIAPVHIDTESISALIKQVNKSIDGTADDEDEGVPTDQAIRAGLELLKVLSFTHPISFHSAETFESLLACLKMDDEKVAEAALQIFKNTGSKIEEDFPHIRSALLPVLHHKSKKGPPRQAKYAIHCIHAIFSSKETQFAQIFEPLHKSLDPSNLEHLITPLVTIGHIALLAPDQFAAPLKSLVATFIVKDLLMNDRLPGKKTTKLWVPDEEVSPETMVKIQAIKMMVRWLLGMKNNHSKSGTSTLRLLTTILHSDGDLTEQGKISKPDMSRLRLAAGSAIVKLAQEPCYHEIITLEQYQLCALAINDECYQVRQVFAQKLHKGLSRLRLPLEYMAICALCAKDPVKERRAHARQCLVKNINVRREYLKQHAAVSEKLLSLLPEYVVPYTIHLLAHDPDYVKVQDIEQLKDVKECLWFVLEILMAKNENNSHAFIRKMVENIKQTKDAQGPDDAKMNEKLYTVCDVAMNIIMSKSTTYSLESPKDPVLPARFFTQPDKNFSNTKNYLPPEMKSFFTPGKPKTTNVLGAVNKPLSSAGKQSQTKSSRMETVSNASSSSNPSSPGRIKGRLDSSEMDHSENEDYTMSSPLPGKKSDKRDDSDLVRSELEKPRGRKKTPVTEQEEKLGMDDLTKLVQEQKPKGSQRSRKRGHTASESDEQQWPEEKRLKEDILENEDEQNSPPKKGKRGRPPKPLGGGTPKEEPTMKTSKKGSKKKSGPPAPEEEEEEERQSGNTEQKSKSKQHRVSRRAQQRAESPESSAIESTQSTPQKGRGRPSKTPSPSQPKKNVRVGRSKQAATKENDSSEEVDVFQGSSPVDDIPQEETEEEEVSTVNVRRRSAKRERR
The experiment in a line: EMSA.

B1: ssDNA (JYM925) (ssDNA)
DNA: GGGTGAACCTGCAGGTGGGCAAAGATGTCCTAGCAATGTAATCGTCAAGCTTTATGCCGT
With B1, the binding result is listed as “binds”.

B2: dsDNA (JYM925/JYM945) (dsDNA)
DNA 1: GGGTGAACCTGCAGGTGGGCAAAGATGTCCTAGCAATGTAATCGTCAAGCTTTATGCCGT
DNA 2: ACGGCATAAAGCTTGACGATTACATTGCTAGGACATCTTTGCCCACCTGCAGGTTCACCC
B2: the binding result is given as “no binding”.

B3: Holliday junction (JYM925/926/927/928) (structured_DNA)
DNA 1: GGGTGAACCTGCAGGTGGGCAAAGATGTCCTAGCAATGTAATCGTCAAGCTTTATGCCGT
DNA 2: ACGCTGCCGAATTCTACCAGTGCCAGCGACGGACATCTTTGCCCACCTGCAGGTTCACCC
DNA 3: ACGGCATAAAGCTTGACGATTACATTGCTACATGGAGCTGTCTAGAGGATCCGACTATCG
DNA 4: CGATAGTCGGATCCTCTAGACAGCTCCATGGTCGCTGGCACTGGTAGAATTCGGCAGCGT
For the molecule B3, the binding result was “binds”.

B4: Splayed arms (JYM925/JYM926) (structured_DNA)
DNA 1: GGGTGAACCTGCAGGTGGGCAAAGATGTCCTAGCAATGTAATCGTCAAGCTTTATGCCGT
DNA 2: ACGCTGCCGAATTCTACCAGTGCCAGCGACGGACATCTTTGCCCACCTGCAGGTTCACCC
As for B4, the binding result is given as “binds”.
